Measured values: publication PMC3920835

Biological target: Methylibium petroleiphilum PM1 dioxygenase (Mpe_A2762) (Methylibium petroleiphilum PM1) (UniProt A2SJH7)
Assay: SEC-MALS

Substance: Methylibium petroleiphilum PM1 dioxygenase (Mpe_A2762) (from UniProt A2SJH7 1-253) (enzyme)
- stoichiometry N: 2
